Experimental data as given in PMC10692737.

Molecular target: Rabbit skeletal muscle actin (filaments with free barbed ends) (rabbit) (UniProt P68135)

Chain of C-terminal half of mouse CAP2, C-CAP2 (219–476)-6His (Q9CYT6 219-476): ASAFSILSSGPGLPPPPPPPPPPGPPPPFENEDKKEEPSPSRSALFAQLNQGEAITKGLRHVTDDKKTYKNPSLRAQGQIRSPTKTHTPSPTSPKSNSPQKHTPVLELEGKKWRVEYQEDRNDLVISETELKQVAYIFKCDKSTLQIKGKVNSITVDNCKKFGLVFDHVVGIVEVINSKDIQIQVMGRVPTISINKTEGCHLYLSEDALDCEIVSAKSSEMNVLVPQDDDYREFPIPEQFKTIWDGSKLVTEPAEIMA

barbed end depolymerization rate in mf-TIRF, no actin monomers, 1 μM C-CAP2 (2.5- to 3-fold faster than control) (subunits s^−1): 10.8
Substance: C-terminal half of mouse CAP2, C-CAP2 (219–476)-6His (from UniProt Q9CYT6 219-476) (domain or fragment)
